Reference: article PMC13225215, “Kinetic properties of optogenetic site-specific DNA recombination by LiCre-loxP”

B1: half loxP (1Y70/1Y71) (dsDNA)
DNA 1: CGGAATTCAGATCTATAACTTCGTATAATGTGTCTAGAGGATCCGC
DNA 2: GCGGATCCTCTAGACACATTATACGAAGTTATAGATCTGAATTCCG

Key:
[1] = target: LiCre (asLOV2-Cre chimera) (synthetic chimera (Avena sativa LOV2?)) (UniProt P06956); assay: SPR; details: SPR (Biacore T200, SA chip): 20 mM Tris pH 7.4, 50 mM KCl, 150 mM NaCl, 10 mM MgCl2, 1 mM DTT, 0.05% P20; 25 C; 0.3125-10 nM protein; no blue light
[2] = target: Cre recombinase (UniProt P06956 1-343); assay: SPR; KD1, first unit; global kinetic fit of half and full site data; 10 mM Mg2+; no blue light; SPR (Biacore T200, SA chip): 20 mM Tris pH 7.4, 50 mM KCl, 150 mM NaCl, 10 mM MgCl2, 1 mM DTT, 0.05% P20; 25 C; 0.3125-10 nM protein; no blue light; details: protein: recombinant; tags: N-terminal 6xHis; chain copies: 2; label: 5'-biotin on 1Y70; blunt

Molecule	Kd [1] [nM]	Kd [2] [nM]
CGGAATTCACAACTTCGTATAATGTATGCTATACGAAGTTATGGATCCGC (double strand) [full loxP (1Y68/1Y69)]	0.0061	–
CGGAATTCAGATCTATAACTTCGTATAATGTGTCTAGAGGATCCGC (double strand) [half loxP (1Y70/1Y71)]	0.49	–
B1	–	1.15
